# System: MS2 coat protein
# Assay: apparent KD of MS2 coat protein; higher = weaker reporter binding
# Settings: Eterna round: R107; input ligand: arginine 13.2 mM
# In short: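 The buffer was 100 mM Tris-HCl pH 7.5 with 80 mM KCl and 4 mM MgCl2, used without or with constant ligand. In it, RNA switches transcribed on-chip from Illumina sequencing clusters were titrated with SNAP-549-labelled MS2 coat protein in twofold steps from 0.7 or 1.5 nM to 3 µM. Apparent KD for each design is the median of its normalised cluster binding-curve fits.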
row,Sequence,apparent KD of MS2 coat protein
1,GACUAUAUGAUAUGUCAGAAAUCCUCGAAACGAGGACCGGUACGGCCGCCACUCGAGUGAUAAACAUGAGGAUCACCCAUGUAAA [Tryp A Ex t2],21 nM
2,UGAGUUAGACAAAAGUCUAGCUCUGGUGAAGGAGCGUCCGAAAGGACAGGUAGGUCGCACCACCUGAGGAUCACCCGGGUUCCUA [ArgAS 13 #OpenEnded #AlternativeMS2],360 nM
3,AUAAUGAGUGGUGGAUAGGUGAUCCUCUUACGAGGACCGGUACGGCCGCCACUCGAUAACAUGAGGAUCACCCAUGUAAUAAUAA [|T'-M'-Trp-Ms2|_Design19],21 nM
4,GAUGAUAUUGCAGAUACCAGACACAUGAGGAUCACCCAUGUCUCUGUGAUGUAGGAUUGUGUCCCUUGGCAGCUGCGAUAUCAUC [Chile],88 nM
5,AGCACUGUGACGGCCGCCACUACAUAAAUAGGGUGGUCAGGUUCAUUACAUGAGGAUCACCCAUGUAGGACCGGGUCUCAGUGCA [Omei Trp Exc B A v7],10 nM
6,CAAACAUGAGGAUCACCCAUGUAAUCAGAUACCAGUGACGAAAGUCACCCUUGGCAGCUGAGUACAUUAGUUCUAAGGUGUUUGA [EThA NP+V+V2 #6 +-Same Structure],32.7 nM
7,GGUGGCGUGACGGAUACCAGCCACCGCCGCAAGGCCACAUGAGGAUCACCCAUGUUGGGUGGCCCUUGGCAGCUGUCGUGCGGCG [#1 Same State - Theophylline B Attempt #21 (HarryS)],121 nM
8,ACACGAAGCUGAAGGAGCGUGGUAUAAAUUUUUACAUGAGGAUCACCCAUGUUUCAUCAAUCACAGGUAGGUCGCAGAUGCGUGA [JR_SSArginiB_Sub014],19.6 nM
9,AAACGUUGCUCAGAUACCAGACAUGAGGAUCACCCAUGUACCAAGGUAAAGAAAUAACGUGUCCCUUGGCAGCUGAGCAACGAAA [MAT - Exclusion Theophlline B - Mod of Eli - D11],13.8 nM
10,AACAACAAGGGAAGGAGCGCGAAUAAUAGACAUGAGGAUCACCCAUGUAUCAUGGGAUUAACGCAGGUAGGUCGCCCACAAACAA [#07 Exclusion - Arginine B],60.4 nM
11,UGUAACAUGAGGAUCACCCAUGUGAGUGAUACCAGAUUAGUAUUAGUCCCUUGGCAGCACAUUGGGCGAGUGUAUAGUCUAUGCG [Same State - Theophylline A (Freestyle 12)],106 nM
12,UGUAUGGACUGAAGGAGCGGGUUGAUAACUUGAGGAUCACCCAGGUAAAAGGCGAAAGCCGCCCAGGUAGGUCGCAGUCCAUACU,40.2 nM
13,GACCUUAUCUGAAGGAGCGAGGUAAAUAGGGAUGAGCAUACAUGAGGAUCACCCAUGUGGCCUCAGGUAGGUCGCAGAUGAGAUU [Exclusion Arginine B GF27],77.5 nM
14,UAAUGCAGGUCGGCCGCCACUACACACAUGAGGAUCACCCAUGUAGUUACUGGGUGAAGUGGCAGUAGGACCGGGACCUGCAUAC [Brourdmod04],165 nM
15,CCUGGACAUGAGGAUCACCCAUGUGAGGAUACCAGAUAUCCUGAUAUCCCUUGGCAGCCUCAUUACUUCGCAUUACCGAAACUUC [theeternabot_sameState_MS2_Theo_A_35],31.1 nM
16,CGUAUUACGAAAGUAGUACGUAGUGUUCGACGAGGACCGGUACGGCCGCCACUCGGACAUGAGGAUCACCCAUGUAGCGAAAGCU [Tryptophan A 24],46.1 nM
17,UCGCUCGCCGAAAGGCGAGCGAGUUGCGAUACCAGCCCGGAAACGGGCCCUUGGCAGCGCACAUGAGGAUCACCCAUGUCAUGUU [#1 Exclusion - Theophylline A Attempt #3 (HarryS)],13.4 nM
18,CCAUGCAGGUCGGCCGCCACUACACACAUGAGGAUCACCCAUGUAGUUACUGGGUGAAGUGGCAGUAGGACCGGGACCUGCAUAU [Brourdmod11],94.5 nM
19,UUACAACUAAUGGAUACCAGCCGCGUGCUAGUGGUAGCAUACAUGAGGAUCACCCAUGUCGGCCCUUGGCAGCCACGCCCAUGCU [theeternabot_exclusion_MS2_Theo_B_2],13.7 nM

row,Sequence,apparent KD of MS2 coat protein
1,AAUUUAAACGGAAGGAGCGUCACUUAAUAUCAACAUGAGGAUCACCCAUGUACGGGUUGUAGACAGGUAGGUCGCCGUCAUUUGA [#15 Same State - Arginine B],49.4 nM
2,GACCUUAUCUGAAGGAGCGAGGUAAAUAGGGUUGAGCAUACAUGAGGAUCACCCAUGUGGCCUCAGGUAGGUCGCAGAUAAGACA [Exclusion Arginine B GF29],149 nM
3,AAAGGUCGCAAUAAAUCUCCUACAUGUGAAGGAGCGCGCGAAAGCGCAGGUAGGUCGCACAUGAGGAUCACCCAUGUGAGCGACC [MAT - Exclusion Arginine A - Mod of Eli - D3],9.41 nM
4,AAUAACUUGAGGAUCACCCAAGUAAAAGAUACCAGAGUGAUGAUCCUCCCUUGGCAGCUUAACGCUGAUUGAUUACAAUCAGCGA,63.2 nM
5,UAUAUAGAAGGAUGUCAUAUAGAUGCAGAAGGAGCGUAGGAAACUACAGGUAGGUCGCUGAGGUACAUGAGGAUCACCCAUGUAG [SSArg A #17 Slice of Pi],32.6 nM
6,CCUAUGCAGUCGGCCGCCACUGAAAUAAAUUAUAUUACCUCAGAAACAUGAGGAUCACCCAUGUACAGGACCGGGACUGUAUAGG [Ex Tryptophan B 15],26 nM
7,UCCUCCUCCGCAAGGAGGAGGAGUUGCGAUACCAGCACGGUAACGUGCCCUUGGCAGCGCACAUGAGGAUCACCCAUGUGGUGUU [#1 Exclusion - Theophylline A Attempt #12 (HarryS)],52.7 nM
8,GCUGCAGCUACGGCCGCCACUGUUACGUGAGACAUGAGGAUCACCCAUGUUGAUGUUUUACGGUAUAGGACCGGGUAGUUGUAGU [E 1.0],9.08 nM
9,AAACUAACGAGAGGAAACCUCGAGGGUGAUACCAGCACAUAAGGGUGCCCUUGGCAGCACCGACGUACAUGAGGAUCACCCAUGU [Gexegees],56.6 nM
10,AGUACAUGAGGAUCACCCAUGUACCAUGAUACCAGACAUGAAAAUGUCCCUUGGCAGCGUGGGUGAGGCAUCCGAAAGGAUGCCC [#05 SameState-TheophyllineA],51.1 nM
11,GCCUAGCAUCGAAGGAGCGCUGGUGAAACUGACUAAUAUACAUGAGGAUCACCCAUGUGCUAGCAGGUAGGUCGCGAUGCUAGGC [SSAB NP+V+V2 #11],20.4 nM
12,CGAAAGCACAUGGGUUGCUUUCGACUGGAAGGAGCGAGCGAAAGCUCAGGUAGGUCGCCAGAAACAUGAGGAUCACCCAUGUAAU [(A)''-(M)'-(A)'(Arg1)-(Arg2)-(M1)-(M2)_Design10],21.6 nM
13,UAGACGGCCGGAAGGAGCGGUACAUGAGGAUCACCCAUGUAUCCCUGGGCAUCCGUAGUGUGCCAGGUAGGUCGCCGGUUGCGGG [XArg-B21],15.3 nM
14,CACAUGAGGAUCACCCAUGUCUGAACUGAAGGAGCGCUAAACAAGGCAGGUAGGUCGCGGAAUCCCGGGUGCAUAUGCACCCGGG [9.aA],50.4 nM
15,AGCGGAACGGAAGGGUCCCGAAAUUGUGAUACCAGCCUUGAAUCCGGCCCUUGGCAGCACAUGAGGAUCACCCAUGUACUGCGGU [Arimaed],11.4 nM
16,UGUAUAUACGGAAGGAGCGUGUAAGAUUAAGAACAUGAGGAUCACCCAUGUUUUAAGGGAACACAGGUAGGUCGCCGUAUAUAUG [11.O],9.29 nM
17,CUAUAAGUACCGGUCCUCAGAUCCUCAUGACGAGGACCGGUACGGCCGCCACUCGAAACAUGAGGAUCACCCAUGUAAUAAUAUU [Brourdmod10],19 nM
18,AGUCUUAAAGGAAGGAGCGCAAUCAUAACAUGAGGAUCACCCAUGUCGAGGUGAGGGUCAUUGCAGGUAGGUCGCCUUACUAAGA [Same State - Arginine B (Freestyle 7)],128 nM
19,CCUAUGCAGUCGGCCGCCACUGAACAUGAGGAUCACCCAUGUUUUUAUAAAUAUGGUCCUAUAAUCAGGACCGGGACUGUAUAGG [Ex Tryptophan B 9],38.3 nM

# Same assay, conditions: Eterna round: R107; input ligand: none
row,Sequence,apparent KD of MS2 coat protein
1,UGAGUUAGACAAAAGUCUAGCUCUGGUGAAGGAGCGUCCGAAAGGACAGGUAGGUCGCACCACCUGAGGAUCACCCGGGUUCCUA [ArgAS 13 #OpenEnded #AlternativeMS2],167 nM
2,ACACGAAGCUGAAGGAGCGUGGUAUAAAUUUUUACAUGAGGAUCACCCAUGUUUCAUCAAUCACAGGUAGGUCGCAGAUGCGUGA [JR_SSArginiB_Sub014],14.1 nM
